Here are results for one variant from IntAct's records for PubMed 9830048.

B1: Synaptotagmin-1 (Rattus norvegicus (Rat)), P21707 (parent)
chain: MVSASHPEALAAPVTTVATLVPHNATEPASPGEGKEDAFSKLKQKFMNELHKIPLPPWALIAIAIVAVLLVVTCCFCVCKKCLFKKKNKKKGKEKGGKNAINMKDVKDLGKTMKDQALKDDDAETGLTDGEEKEEPKEEEKLGKLQYSLDYDFQNNQLLVGIIQAAELPALDMGGTSDPYVKVFLLPDKKKKFETKVHRKTLNPVFNEQFTFKVPYSELGGKTLVMAVYDFDRFSKHDIIGEFKVPMNTVDFGHVTEEWRDLQSAEKEEQEKLGDICFSLRYVPTAGKLTVVILEAKNLKKMDVGGLSDPYVKIHLMQNGKRLKKKKTTIKKNTLNPYYNESFSFEVPFEQIQKVQVVVTVLDYDKIGKNDAIGKVFVGYNSTGAELRHWSDMLANPRRPIAQWHTLQVEEEVDAMLAVKK

The variants in the first assay derive from B1. The following applies: with cac1b_rat Cacna1b.
Turning to MVSASHPEALAAPVTTVATLVPHNATEPASPGEGKEDAFSKLKQKFMNELHKIPLPPWALIAIAIVAVLLVVTCCFCVCKKCLFKKKNKKKGKEKGGKNAINMKDVKDLGKTMKDQALKDDDAETGLTDGEEKEEPKEEEKLGKLQYSLDYDFQNNQLLVGIIQAAELPALDMGGTSDPYVKVFLLPDKKKKFETKVHRKTLNPVFNEQFTFKVPYSELGGKTLVMAVYDFDRFSKHDIIGEFKVPMNTVDFGHVTEEWRDLQSAEKEEQEKLGDICFSLRYVPTAGKLTVVILEAKNLKKMDVGGLSDPYVKIHLMQNGKRLKKAATTIKKNTLNPYYNESFSFEVPFEQIQKVQVVVTVLDYDKIGKNDAIGKVFVGYNSTGAELRHWSDMLANPRRPIAQWHTLQVEEEVDAMLAVKK [K326A;K327A], the “effect of a mutation on the interaction” value is “decreasing interaction”.

The variants in the next assay derive from B1. As to conditions: with ap2a2_rat Ap2a2, P18484.
Sequence of ap2a2_rat Ap2a2, P18484 (P18484 whole entry): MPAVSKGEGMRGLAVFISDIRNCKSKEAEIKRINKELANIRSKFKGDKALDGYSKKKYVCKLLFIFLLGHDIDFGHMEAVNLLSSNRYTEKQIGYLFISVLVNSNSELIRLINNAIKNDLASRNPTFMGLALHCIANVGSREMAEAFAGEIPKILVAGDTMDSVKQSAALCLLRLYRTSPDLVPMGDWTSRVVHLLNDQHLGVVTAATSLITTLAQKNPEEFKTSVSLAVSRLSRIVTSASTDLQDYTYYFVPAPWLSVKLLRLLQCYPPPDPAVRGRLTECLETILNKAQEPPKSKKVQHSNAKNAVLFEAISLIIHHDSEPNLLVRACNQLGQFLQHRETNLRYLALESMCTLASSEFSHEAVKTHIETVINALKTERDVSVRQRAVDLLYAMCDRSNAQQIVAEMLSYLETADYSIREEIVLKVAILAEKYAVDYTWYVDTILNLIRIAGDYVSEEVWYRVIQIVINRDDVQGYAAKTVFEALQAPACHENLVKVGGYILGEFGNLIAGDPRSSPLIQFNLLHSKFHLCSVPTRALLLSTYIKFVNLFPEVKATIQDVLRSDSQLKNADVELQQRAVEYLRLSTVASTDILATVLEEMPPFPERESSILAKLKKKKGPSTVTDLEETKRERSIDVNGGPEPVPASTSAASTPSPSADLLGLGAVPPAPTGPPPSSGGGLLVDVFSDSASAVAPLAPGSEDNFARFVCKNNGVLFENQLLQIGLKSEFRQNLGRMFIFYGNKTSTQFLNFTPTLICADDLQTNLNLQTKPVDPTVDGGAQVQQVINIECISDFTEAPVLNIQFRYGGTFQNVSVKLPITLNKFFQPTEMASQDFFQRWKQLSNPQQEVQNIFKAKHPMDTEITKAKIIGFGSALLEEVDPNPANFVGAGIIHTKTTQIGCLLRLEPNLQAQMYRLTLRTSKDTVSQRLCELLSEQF
Regarding MVSASHPEALAAPVTTVATLVPHNATEPASPGEGKEDAFSKLKQKFMNELHKIPLPPWALIAIAIVAVLLVVTCCFCVCKKCLFKKKNKKKGKEKGGKNAINMKDVKDLGKTMKDQALKDDDAETGLTDGEEKEEPKEEEKLGKLQYSLDYDFQNNQLLVGIIQAAELPALDMGGTSDPYVKVFLLPDKKKKFETKVHRKTLNPVFNEQFTFKVPYSELGGKTLVMAVYDFDRFSKHDIIGEFKVPMNTVDFGHVTEEWRDLQSAEKEEQEKLGDICFSLRYVPTAGKLTVVILEAKNLKKMDVGGLSDPYVKIHLMQNGKRLKKAATTIKKNTLNPYYNESFSFEVPFEQIQKVQVVVTVLDYDKIGKNDAIGKVFVGYNSTGAELRHWSDMLANPRRPIAQWHTLQVEEEVDAMLAVKK [K326A;K327A], the “effect of a mutation on the interaction” value is listed as “decreasing interaction”.
